Measured values reported in the supplement of paper PMC9732359.
± gives the uncertainty stated by the source.

Assay: protein stability index of a GFP-peptide fusion (yeast GPS) (PSI 1-4); higher = more stable; sorted into four equal gates, so the index is relative within each strain
How it was run: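 Each library plasmid carries Cherry plus GFP with a tiled 17-residue yeast protein peptide fused downstream, and the pooled library was carried in yeast. Mid-log cultures in leucine-free medium were sorted into four equal gates by GFP/Cherry ratio. Reads from Illumina sequencing of PCR-amplified plasmids from each gate were assigned to strains by barcodes. Per peptide, the protein stability index was computed as the summed products of gate read frequency and gate number.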

| Sequence | protein stability index (doa10∆) | protein stability index (pdr5∆) | protein stability index (san1∆) | protein stability index (ubr1∆) |
| --- | --- | --- | --- | --- |
| AARHRARFRSIHILKVA [RPL20A] | 1.22 ± 0.077 | 1.18 ± 0.042 | 1.22 ± 0.11 | 1.1 ± 0.059 |
| NATANATANATANATAE [SNF11] | 3.15 ± 0.04 | 3.33 ± 0.042 | 3.18 ± 0.042 | 3.325 ± 0.03 |
| QEGKISSVYRLKFAVQV [RPL26A] | 3.09 ± 0.089 | 3.25 ± 0.11 | 3.1 ± 0.095 | 3.76 ± 0.12 |
| AGKFPTPVSHNDDLYGK [RPL1A] | 2.26 ± 0.041 | 2.62 ± 0.056 | 2.21 ± 0.057 | 2.45 ± 0.043 |
| KERYTVEDELTESIALS [RRI1] | 3.1 ± 0.065 | 3.29 ± 0.052 | 3.11 ± 0.075 | 3.23 ± 0.058 |
| QNHNSKSTDNSAIRQVF [IRR1] | 2.61 ± 0.039 | 2.8 ± 0.037 | 2.85 ± 0.042 | 2.739 ± 0.027 |
| DMLKYKEDEPVVARRSN [ITC1] | 2.96 ± 0.1 | 2.42 ± 0.098 | 1.84 ± 0.084 | 1.76 ± 0.063 |
| GYKMIPGAKPLQVGDVV [FAS1] | 2.43 ± 0.1 | 2.44 ± 0.1 | 2.37 ± 0.1 | 1.79 ± 0.14 |
| AQNQGMFGAKPAGTSLF [YGL172W/NUP49] | 2.32 ± 0.054 | 2.36 ± 0.064 | 2.34 ± 0.075 | 2.37 ± 0.04 |
| LYDALEPSDLRSWTLTS [YGL100W/SEH1] | 2.82 ± 0.048 | 2.79 ± 0.046 | 2.78 ± 0.038 | 3.03 ± 0.049 |
| SKNMSKSPSLTAQKYPI [YMR153W/NUP53] | 2.46 ± 0.051 | 2.46 ± 0.044 | 2.48 ± 0.055 | 2.51 ± 0.043 |
| FNDFSNIKTSEWDLYPQ [REC8] | 2.84 ± 0.082 | 2.92 ± 0.053 | 2.78 ± 0.075 | 3.15 ± 0.082 |
| WPIVQKTYEPVLNEDDL [RPN5] | 2.32 ± 0.068 | 2.59 ± 0.11 | 1.85 ± 0.098 | 2.27 ± 0.071 |
| RNLNNLKQENAYLLIRR [RPB8] | 3.14 ± 0.072 | 3.16 ± 0.084 | 3.15 ± 0.071 | 3 ± 0.054 |
| QLAGKSGEDTNVGLPIL [YOR098C/NUP1] | 2.86 ± 0.15 | 3.32 ± 0.084 | 3.36 ± 0.062 | 3.25 ± 0.052 |
| EEREGTDQSTEEEKSVD [CSL4] | 3.16 ± 0.16 | – | – | – |
| PQAILAKNSIIDSSNLP [SWI1] | 2.02 ± 0.061 | 2.42 ± 0.061 | 2.32 ± 0.05 | 2.36 ± 0.04 |
| EMDEKSYEKNEDHVEDH [LIN1] | 3.3 ± 0.11 | 3.35 ± 0.089 | 3.49 ± 0.086 | 3.14 ± 0.052 |
| LGNTVSTQPSFAWSKPS [YGR119C/NUP57] | 2.62 ± 0.067 | 2.84 ± 0.056 | 2.85 ± 0.077 | 2.25 ± 0.035 |
| YFLDVKCPGCLNITTVF [RPS27A] | 2.64 ± 0.054 | 2.6 ± 0.055 | 2.19 ± 0.1 | 2.85 ± 0.054 |
| NHTAHNQTRKAHRNGIK [RPL29] | 1.88 ± 0.047 | 2.56 ± 0.059 | 2.32 ± 0.06 | 2.57 ± 0.052 |
| GHIPWHILAVKKMMNTL [SSN2] | 2.45 ± 0.065 | 2.85 ± 0.098 | 2.74 ± 0.1 | 1.1 ± 0.16 |
| RVLTQDGRVYIGQLMAF [SMB1] | 3.48 ± 0.098 | 3.26 ± 0.083 | 2.63 ± 0.09 | 3.05 ± 0.041 |
| VENLTVAQECIAFLKKQ [SMC1] | 2.12 ± 0.065 | 2.47 ± 0.07 | 2.42 ± 0.086 | 1.98 ± 0.051 |
| KNDLFVIWSEDNDEKLI [RPO21] | 2.83 ± 0.077 | 2.55 ± 0.096 | 3.1 ± 0.045 | 2.44 ± 0.089 |
| SSNQSAPVETKKKRFEI [HRT1] | 3.18 ± 0.065 | 3.3 ± 0.079 | 3.08 ± 0.069 | 3.27 ± 0.07 |
| KALDNACGAFININEFA [CDC53] | 2.56 ± 0.12 | 3 ± 0.14 | 2.71 ± 0.094 | 2.82 ± 0.15 |
